The source of these data is patent publication US20240174746A1.

For assay [1], the target named is mouse TMEM106B (mouse) (UniProt Q80X71). In words: flow cytometry, HEK293 cells transiently transfected with murine TMEM106B. (A flow cytometer gives signals particle by particle.)
Assay [2] deals with cynomolgus (cyno) TMEM106B (cynomolgus). In words: flow cytometry, HEK293 cells transiently transfected with cyno TMEM106B.
The target in assay [3] is human TMEM106B (human) (UniProt Q9NUM4). Description: flow cytometry, HEK293 cells transiently transfected with human TMEM106B.

B1: TM-77 (antibody, V domains shown)
VH: QIQLQQSGAELVRPGASVKLSCKASGYTFTDYEMHWVKQTPVHGLEWIGVIDPETGGTAYNQMFKGKATLTADKSSSTAYMDLRSLTSEDSAVYYCVKYGIEGYWGQGTTLTVSS
VL: DVVMTQIPLTLSVTLGQPASISCKSSQSLFHSNGKTYLNWLLQRPGQSPKLLIYMVSKLESGVPDRFSGSGSGTDFTLKISRVEAEDLGVYYCLQVTHFPLTFGAGTKLELK
In the case of B1, in assay [1], the fold-change in binding over parental HEK293 cells was 1.86 fold.

B2: TM-72 (antibody, V domains shown)
VH: QVQLQQPGAELVKPGTSVKLSCKASGSTFTNYWMHWVMQRPGQGLEWIGNIDPSDSDTHYNQKFKDRAKLTVDKSSSTAYMQLSGLTSEDSAVYYCARSRGGYYDYGEAMDYWGQGTSVTVSS
VL: DIVMTQAAPSVPVTPGESVSISCRSSKSLLHTNGNTYLFWFIQRPGQSPHLLIYRKSNLASGVPDRFSGSGSGTAFTLRISRVEAEDVGVYYCMQHLEYPFTFGSGTKLEIK
As for B2, the fold-change in binding over parental HEK293 cells in assay [2] worked out at 1.78 fold.

B3: TM-90 (antibody, V domains shown)
VH: QVHLQQSGPELVKPGASVKLSCKASGYPFTSYDINWVKQRPGQGLEWIGWIYPRDGNAKYNEKFKGKATLTVDTSSSTAYMELHSLTSENSAVYFCARVSDYHGGYGMDYWGQGTSVTVSS
VL: DVLMTQTPLSLPVSLGDQASISCRSSQSFVHGNGNTYLEWYLQKPGQSPKLLIYKVSHRFSGVPDRFSGSGSGTDFTLKITRVEAEDLGVYYCFQNSHVPHTFGGGTKLEIK
Regarding B3, in assay [1], the fold-change in binding over parental HEK293 cells came out at 1.97 fold.

B4: TM-79 (antibody, V domains shown)
VH: EVQLQQSGPELVKPGASVKMSCKASGYTFTNYVMHWLKQKPGQGLEWIAHITPHNDGTKYNEKFKGKATLTSDRSSSTAYMELNSLTSEDSAIYYCARSGQFGRGDYFHYWGQGTTVTVSS
VL: DIVLTQSPASLAVSLGQRATISCRASKSVSTSGSIYIHWYQQKPGQPPKLLIYLTSNLESGVPARFSGSGSGTDFTLNIHPVEEEDAATYYCQHSGELPWTFGGGARLEIK
As to B4, the fold-change in binding over parental HEK293 cells in assay [1] worked out at 1.86 fold.

B5: TM-82 (antibody, V domains shown)
VH: QVQLQQSGAELVRPGTSVRVSCKASGYAFTNYLIEWIKQRPGQGLEWIGVINPGSGITDYSEKFKGKARLTADKSSSTAYMQLSSLTSDDSAVYFCTRSPFITTVVADYWGQGTTVTVSS
VL: DVVVTQTPLSLPVSFGDQVSISCRSSQSLANTYGNTYLSWYLHTPGQSPQLLIFGISNRFSGVPDRFSGSGSGTDFTLKISTIKPEDLGVYYCLQGTHPPRTFGGGTKLEMK
Take B5: the fold-change in binding over parental HEK293 cells in assay [3] worked out at 1.99 fold.
